Assay results published in the FLAb antibody collection (doi:10.7554/elife.23156).

B1: scFv; the commonest letter at each place (parent)
chain 1: EVKLDETGGGLVQPGRPMKLSCVASGFTFSDYWMNWVRQSPEKGLEWVAQIRNKPYNYETYYSDSVKGRFTISRDDSKSSVYLQMNNLRVEDMGIYYCTGSYYGMDYWGQGTSVTVS
chain 2: DVVMTQTPLSLPVSLGDQASISCRSSQSLVHSNGNTYLRWYLQKPGQSPKVLIYKVSNRFSGVPDRFSGSGSGTDFTLKISRVEAEDLGVYFCSQSTHVPWTFGGGTKLEIK

Tests used:
[1] = variants of: B1; assay: Kd (Tite-Seq); conditions: with fluorescein; format: scFv 4-4-20, heavy + light
[2] = variants of: B1; assay: yeast surface expression (ratio to wild type); higher = more expressed; conditions: format: scFv 4-4-20, heavy + light

| Variant | Kd [1] | yeast surface expression [2] |
| --- | --- | --- |
| chain 1 G100H W108F | 0.00746 µM | 0.392 |
| chain 1 G100H Y103Q G109A | ≥ 10 µM | 0.293 |
| chain 1 G100H Y107H | ≥ 10 µM | 0.348 |
| chain 1 G100I | ≥ 10 µM | 0.852 |
| chain 1 G100I G104W | ≥ 10 µM | 0.449 |
| chain 1 G100I G109A | ≥ 10 µM | 0.429 |
| chain 1 G100I G109I | ≥ 10 µM | 0.25 |
| chain 1 G100I S101E | ≥ 10 µM | 0.652 |
| chain 1 G100I S101G D106C | ≥ 10 µM | 0.777 |
| chain 1 G100I S101Y Y107A | ≥ 10 µM | 0.466 |
| chain 1 G100I W108K | ≥ 10 µM | 0.698 |
| chain 1 G100I W108M | 0.00468 µM | 0.946 |
| chain 1 G100I W108R | ≥ 10 µM | 0.781 |
| chain 1 G100I Y102M | ≥ 10 µM | 1.08 |
| chain 1 G100I Y103C M105Y | ≥ 10 µM | 0.694 |
| chain 1 G100I Y103E | ≥ 10 µM | 0.879 |
| chain 1 G100I Y103F | ≥ 10 µM | 0.932 |
| chain 1 G100I Y103H | ≥ 10 µM | 0.94 |
| chain 1 G100I Y107D | ≥ 10 µM | 0.381 |
| chain 1 G100I Y107E | ≥ 10 µM | 0.689 |
| chain 1 G100I Y107P | ≥ 10 µM | 0.276 |
| chain 1 G100I Y107P W108I | ≥ 10 µM | 0.471 |
| chain 1 G100K | ≥ 10 µM | 0.395 |
| chain 1 G100K D106C | ≥ 10 µM | 0.0988 |

| Variant | Kd [1] | yeast surface expression [2] |
| --- | --- | --- |
| chain 1 G100K D106S | ≥ 10 µM | 0.303 |
| chain 1 G100K D106V | ≥ 10 µM | 0.171 |
| chain 1 G100K G104C | 4.6 µM | 0.182 |
| chain 1 G100K G104H | ≥ 10 µM | 0.322 |
| chain 1 G100K G109V | ≥ 10 µM | 0.188 |
| chain 1 G100K M105D | ≥ 10 µM | 0.375 |
| chain 1 G100K W108H | ≥ 10 µM | 0.249 |
| chain 1 G100K Y107V | ≥ 10 µM | 0.3 |
| chain 1 G100L | ≥ 10 µM | 0.747 |
| chain 1 G100L D106L | ≥ 10 µM | 0.395 |
| chain 1 G100L G104Q W108M | ≥ 10 µM | 0.343 |
| chain 1 G100L G104S | ≥ 10 µM | 0.51 |
| chain 1 G100L G109R | ≥ 10 µM | 0.268 |
| chain 1 G100L G109S | 9.5 µM | 0.566 |
| chain 1 G100L G109V | ≥ 10 µM | 0.253 |
| chain 1 G100L S101K | ≥ 10 µM | 0.461 |
| chain 1 G100L S101M | ≥ 10 µM | 0.474 |
| chain 1 G100L W108Q | ≥ 10 µM | 0.477 |
| chain 1 G100L Y102W | ≥ 10 µM | 0.497 |
| chain 1 G100M | ≥ 10 µM | 0.759 |
| chain 1 G100M G104C | ≥ 10 µM | 0.544 |
| chain 1 G100M G104P D106I | ≥ 10 µM | 0.361 |
| chain 1 G100M G109M | ≥ 10 µM | 0.274 |
| chain 1 G100M G109W | ≥ 10 µM | 0.185 |

| Variant | Kd [1] | yeast surface expression [2] |
| --- | --- | --- |
| chain 1 G100M M105F | ≥ 10 µM | 0.769 |
| chain 1 G100M M105P Y107D | ≥ 10 µM | 0.325 |
| chain 1 G100M S101E W108V | ≥ 10 µM | 0.515 |
| chain 1 G100M S101I G104T | ≥ 10 µM | 0.359 |
| chain 1 G100M S101V | ≥ 10 µM | 0.549 |
| chain 1 G100M Y102V | ≥ 10 µM | 0.856 |
| chain 1 G100M Y107G | ≥ 10 µM | 0.575 |
| chain 1 G100M Y107T | ≥ 10 µM | 0.729 |
| chain 1 G100N | ≥ 10 µM | 0.668 |
| chain 1 G100N D106I | ≥ 10 µM | 0.203 |
| chain 1 G100N D106N | ≥ 10 µM | 0.287 |
| chain 1 G100N D106Y | ≥ 10 µM | 0.146 |
| chain 1 G100N G104F | ≥ 10 µM | 0.321 |
| chain 1 G100N G104N | ≥ 10 µM | 0.347 |
| chain 1 G100N G104W | ≥ 10 µM | 0.281 |
| chain 1 G100N G104Y | ≥ 10 µM | 0.185 |
| chain 1 G100N G109H | ≥ 10 µM | 0.236 |
| chain 1 G100N G109R | ≥ 10 µM | 0.283 |
| chain 1 G100N M105T | ≥ 10 µM | 0.413 |
| chain 1 G100N M105Y | ≥ 10 µM | 0.462 |
| chain 1 G100N S101C | ≥ 10 µM | 0.234 |
| chain 1 G100N S101I | ≥ 10 µM | 0.189 |
| chain 1 G100N Y102D G109M | ≥ 10 µM | 0.159 |
| chain 1 G100N Y102N | ≥ 10 µM | 0.643 |

| Variant | Kd [1] | yeast surface expression [2] |
| --- | --- | --- |
| chain 1 G100N Y102Q | ≥ 10 µM | 0.746 |
| chain 1 G100N Y107K | ≥ 10 µM | 0.6 |
| chain 1 G100N Y107V | ≥ 10 µM | 0.691 |
| chain 1 G100P | ≥ 10 µM | 0.758 |
| chain 1 G100P D106A | ≥ 10 µM | 0.627 |
| chain 1 G100P D106M | ≥ 10 µM | 0.537 |
| chain 1 G100P G104H | ≥ 10 µM | 0.68 |
| chain 1 G100P G104I | ≥ 10 µM | 0.337 |
| chain 1 G100P G109A | ≥ 10 µM | 0.3 |
| chain 1 G100P G109S | ≥ 10 µM | 0.485 |
| chain 1 G100P M105A | ≥ 10 µM | 0.56 |
| chain 1 G100P M105S G109M | ≥ 10 µM | 0.234 |
| chain 1 G100P S101T | ≥ 10 µM | 0.486 |
| chain 1 G100P W108M | ≥ 10 µM | 0.572 |
| chain 1 G100P Y102W | ≥ 10 µM | 0.682 |
| chain 1 G100Q | ≥ 10 µM | 0.476 |
| chain 1 G100Q D106H | ≥ 10 µM | 0.182 |
| chain 1 G100Q D106I | ≥ 10 µM | 0.184 |
| chain 1 G100Q D106P | ≥ 10 µM | 0.222 |
| chain 1 G100Q G104E | ≥ 10 µM | 0.38 |
| chain 1 G100Q G109C | ≥ 10 µM | 0.226 |
| chain 1 G100Q G109E | ≥ 10 µM | 0.304 |
| chain 1 G100Q G109M | ≥ 10 µM | 0.223 |
| chain 1 G100Q M105S | ≥ 10 µM | 0.521 |

| Variant | Kd [1] | yeast surface expression [2] |
| --- | --- | --- |
| chain 1 G100Q S101Q | ≥ 10 µM | 0.263 |
| chain 1 G100Q W108N | ≥ 10 µM | 0.289 |
| chain 1 G100Q W108R | ≥ 10 µM | 0.232 |
| chain 1 G100Q Y103R D106L | ≥ 10 µM | 0.235 |
| chain 1 G100Q Y107C | ≥ 10 µM | 0.176 |
| chain 1 G100Q Y107L G109E | ≥ 10 µM | 0.226 |
| chain 1 G100R | ≥ 10 µM | 0.624 |
| chain 1 G100R D106V | ≥ 10 µM | 0.108 |
| chain 1 G100R G104Q | ≥ 10 µM | 0.217 |
| chain 1 G100R G104S | ≥ 10 µM | 0.28 |
| chain 1 G100R G104V M105S | ≥ 10 µM | 0.211 |
| chain 1 G100R G109C | ≥ 10 µM | 0.173 |
| chain 1 G100R M105Y W108P | ≥ 10 µM | 0.298 |
| chain 1 G100R S101H | ≥ 10 µM | 0.282 |
| chain 1 G100R S101I | ≥ 10 µM | 0.352 |
| chain 1 G100R W108C | ≥ 10 µM | 0.246 |
| chain 1 G100R W108N | ≥ 10 µM | 0.348 |
| chain 1 G100R W108Y | ≥ 10 µM | 0.478 |
| chain 1 G100R Y102I | ≥ 10 µM | 0.483 |
| chain 1 G100R Y103D W108G | ≥ 10 µM | 0.483 |
